Data published in the DeepSol protein solubility set.

Experiment: soluble on expression in E. coli; label from the status in PepcDB or PDB records

| Sequence | soluble on expression in E. coli |
| --- | --- |
| MSLCAPNTGRFLLTGTPLPMLSYRHSFHAGNHADVLKHTVQSLIIESLKEKDKPFLYLDTHAGAGRYQLGSEHAERTGEYLEGIARIWQQDDLPAELEAYINVVKHFNRSGQLRYYPGSPLIARQLLREQDSLQLTELHPSDYPLLRSEFQKDSRARVEKADGFQQLKAKLPPVSRRGLILIDPPYEMKTDYQAVVSGIAEGYKRFATGTYALWYPVVLRQQIKRMIHDLEATGIRKILQIELAVLPDSDRRGMTASGMIVINPPWKLEQQMNNVLPWLHSKLVPAGTGHATVSWIVPEEGHHHHHH | soluble |
| MGGGRMGQHVETLVIGAGPAGLTTAYTLAKAGRGVTVLEMDETYVGGISRTVDYKGFKFDIGGHRFFSKSQEIVDLWNEILPDDFIDRPRLSRIYYREKFYAYPLKAFEALANLGVWTAAKCMASFGWAKLTPIAAPTTFHQWVRNQFGEKLFSIFFKTYTEKVWGMSCDEISADWASQRIKGLDLGAAIIDGVKRSLGLRGKAAEGGPKTLIESFRYPRKGPGMMWEACADKVMALGGDVRMGRKVDGLHFDKIAKLWTVAVTCADGRKEIYTADNVVSSAPIRELMQSISPTPISVFHAGELMYRDFITVVLIGKPQKELPDNWIYIHDPSVKVGRVQNFRSWSPEMIPDGVSTCLGLEYFCFEGDGLWVTSDEELVAQAKREIGKIGLMAPADVYDACVVRQHKAYPVYDDAYAEHVKMIRLDLKMHFPGLHLVGRNGMHKYNNQDHAMMTGLLTAENIIAGETLHDVWEVNEDAEYGEAGVSGARQALRSERAVPTKVAALEHHHHHH | not soluble |
| MVTVRYYATLRPITKKKEETFNGISKISELLERLKVEYGSEFTKQMYDGNNLFKNVIILVNGNNITSMKGLDTEIKDDDKIDLFPPVAGG | soluble |
| MRRVTTLLVMMLTVLSACQASPKASPTKPGNAMSNNHPQNPYYSRTDTTRLDLPNEVWKKVLSPELYAVARLAETERAFTGKYWNYEGLGTYYCAACGNTLFRSDAKFASTCGWPSFFETVRPGSVAYREDTSFGMVRTEVLCGRCGAHLGHVFDDGPPPTGKRFCMNSICLDFEPDQPETAKPQ | soluble |
| MGSDKIHHHHHHMVRLNEIKMQDGKIFLITGANSGLGYETSKFLLERGATVIMCCRDLLKGEKAKKELLKFKFSGKIELVELDLSDLINVKKFAESIKNTFDHLDVLINNAGIMAPPKTLSKQGFEIQFAVNHLAHMFLTLELLPMLEEKNNSRVVTVTSGVQYFGKIQWEDLQGNLKYDRWASYAQSKLANVMFGLELDSKLKETNSKTSSLLAHPGFARTNLQPKSVEANQSWQEELAYKLMDPMFQSAKMGALPQITAATLTSASGGEQYGPRFNFRGFPKICRNAPKALNQTSRKKLWDISEKLIKDFDTLSKQSK | not soluble |
| MEAKKSNKIREIVKLQQLLKKWRKQAIASKAANNNNEDNNSSGGGSKSIKFLKRTLSFTDVTAVPKGYLAVSVGLEKKRYTIPTEYLSHQAFYVLLREAEEEFGFQQAGVLRIPCEVSVFESILKIMEEKNEGYLVTPITAKQECKFNAAADDKTSYQHPSDCPKTPSHQPHNSPMCR | soluble |
| VQRPWLAPLPGAPMNACRLLLCFPYGGGGASAFNDLSRLADVGVATWAVKLPGREDRSMEAPVTRVANVIEAIVDALQSVGIPYAFYGHSFGAGLALDVAHALAERDRPLPTHLVLSGRMPPHTGYSPLLGAMDDNQLWQHVCSESLLPLPTDASCSFARHALGKLKADLALNAQLTYRFIRPLPVPLYVLNGQDDPLLELHRLDEWQRYTSTSFHSEYVPGGHFFFNINFQLLYLPLLTALD | not soluble |
| MGSDKIHHHHHHMAFSFDSRIRYSEVDSSCRLSLTGLTNYFQDCSVFHSQSHDVGIRFLADNHIAWVLSSWQICINRLPLLNEQVKISTWAYGMKAFYGYRNFTLEDAGGSTLAYANSVWVLVDTRTGRPVKVPQEFADTYGLEPQLEMECAKRKLHIPDDMEKKGEIVVPQFFIDSNHHMNNEKYVMLAQQLLPNDFEISELRVEYRKEAKLGDTVISYVKYTSKSVTVVLADTDKKPYSVVEFLSKPVPGK | not soluble |
| GPGSMDDKQAFFVRCIDGKTFKMVIRGDLGKLTVGKIRRYLKSYGVQDGMQLLFNGLSLADEQVGSDFGLCNGATLHLGPPSFSEPAVPQRTHGQGFSDEAAGSRTGDPTDTPHSSLSGDSRERNSKADSTHRDPCGGLSHADPARGTATYSGGRYNVDKGIPVTATSATKTNIDRIPSADLTSHSGFPVALEVENQQLREQVELLRREVADLRQKNKAPRATVLRQDLTSIEVLQSAKSNLQELAEELGVPLQFDTNFTCVVGDDESHTVLVTFDCVTERLYIYSTLLTQIPHDGEVRAKLYELLLEGSLLSREVCGGGIGISPQNGLVLLSTTIPLRHCNSSALKDIMPVFVETVARWRSLINELLN | soluble |
| MMTDRTERRRRLTHAACTPSANNQRTTRLPPHPGFFSWSNPACDDGLFLYRTTVSRGVDTQRRRRSHPGFFSCRYHPSTVSLARRHRGPGKRISLRTEISKDADPISTVTETRWFLLNFQCIEPPLEHHHHHH | soluble |
| GSMTDGDYDYLIKLLALGDSGVGKTTFLYRYTDNKFNPKFITTVGIDFREKRVVYDTQGADGASGKAFKVHLQLWDTAGLERFRSLTTAFFRDAMGFLLMFDLTSQQSFLNVRNWMSQLQANAYCENPDIVLIGNKADLPDQREVNERQARELAEKYGIPYFETSAATGQNVEKSVETLLDLIMKRMEKCVEKTQVPDTVNGGNSGKLDGEKPAEKKCAC | soluble |
| MKFNIRGENIEVTPALKEYVEKKLSKLERYFDTFPEIKVNLKVYSDKQRVEVTIPFTDLLLRAEETNSDMYAAIDLVVDKLERQIRKHKTKVNRKLREKGSMKTNFILPEAVAVLDEVEEDELELVRTKRFDLKPMDVEEAILQMDMLGHNFFVFTNADTNETNVVYGRKDGKYGLIETKLEHHHHHH | not soluble |
| MGSDKIHHHHHHMVKELDLQSVQGTMLIPLWGRAYGSEKNKNILDDTEAIRIIKEFDFDFSTIENTFGEYGCITYITRARKIDDTIKQFITKHPNATIVNIGSGLDTTFSRIDNGTIHWYNLDLPDAISFRKTLIEDTSRNTSIAKSFFDTSWFDDIKYDPNDGILFISAGVFYYFKEEDLKKIVVAMSKRFPGGELYFDAESKFALNLSNATVKKSGNNGALMYFYINNPKTLEKWSPNIKVLSCSPFFKNIPTNKGWDGSTRIMIRIVNLIKMLKFVHLRFEK | not soluble |
| MGSDKIHHHHHHMNTADNVVEMRSISKGFNGVSVLKDVSFDVRKGEVHALAGGNGAGKSTLMKILQGVYQADAGEILIGGKPVAINSIQDAKSAGIGMVFQEFSLVPSLTVAQNIFLAAEPLGAGGLIDDRASERRAKEIFAEMEVKVDPRAEVSRLGTAYWQLTEIAKALSQNAQVLIMDEPTASLARHESEALFELIDRLKQRGISIIYISHRMDEVYRLADRITILRDGRRLLTEPLTGVTPEQIVEGIVGKKIEGQLAYRERDQVAHDSAPLLEVRGLNAGPRVRDISFSLRPGEILGLAGLMGSGRTELARALFGIDRRDSGEIFIRGERINLTSPQQAITAGVALIPEDRRAQGLVLEHSVQDNLLLPLLGQIQRGPFLDGARGKELSSSLIKRFAVKVAHPHRPVRLLSGGNQQKVVIAKWLGTDPDILILDEPTAGVDIGTKSEILDMIRELASAGKAVIVISSEYPELLAVSDRVLVLKDGSIIRDIPRSEIADEEYLQLAVQGV | not soluble |
| MGGSHHHHHHGMASGSPPTQPSPASDSGSGYVPGSVSAAFVTCPNEKVAKEIARAVVEKRLAACVNLIPQITSIYEWKGKIEEDSEVLMMIKTQSSLVPALTDFVRSVHPYEVAEVIALPVEQGNFPYLQWVRQVTESVSDSITVLP | soluble |
| MGSDKIHHHHHHSCKQAPDAGVKSSYAVMQIEPTDKELSSSYSATIRGRQDIDIYPQVSGTIEKLCVTEGQKVRRGQLLFIIDQVPYRAALKTATANVEAARAATSTAELTYKSNKELYAQKVVSEFSLKTAENSYLTAKAQLAQAEAQEISARNNLSYTEVKSPSDGVVGALPYRAGALVSANIPYPLTTVSDNSDMYVYFSMTENQLLALTRQYGDMDEALKNMPEVELILNDNSVYQKKGTIESISGVIDRQTGTVVARVVFPNESRLLHSGASGTVVVPSIYKNCIAIPQTATVRMQDKTIVYKVVDGKAVSTLITVAGINDGREYVVLDGLKAGDEIVSEGAGLVREGTQVK | not soluble |
| MGSDKIHHHHHHMEIKKGTWIIKKGFAEMFKGGVIMDVTSAEQAKIAEEAGAVAVMALERVPADIRKEGGVARMASIAKIREIMEAVSIPVMAKVRIGHIAEAKILEELGVDFIDESEVLTPADDRFHINKHEFKVPFVCGARDLGEALRRIAEGAAMIRTKGEAGTGNVVEAVKHMRRVMEQIKQVTKMEDEELVAYGKEIGAPVELLREVKRLGRLPVVNFAAGGVATPADAALMMMLGADGVFVGSGIFKSKDPRKMAKAMVLAVTYWDNPRILLKISEDIGEPMRGLDVEELEVRMQERGW | not soluble |
| MGSYSSDDVEVIREAGRAQGLATILAIGTATPPNCVAQADYADYYFRVTKSEHMVDLKEKFKRICEKTAIKKRYLALTEDYLQENPTMCEFMAPSLNARQDLVVTGVPMLGKEAAVKAIDEWGLPKSKITHLIFCTTAGVDMPGADYQLVKLLGLSPSVKRYMLYQQGCAAGGTVLRLAKDLAENNKGSRVLIVCSEITAILFHGPNENHLDSLVAQALFGDGAAALIVGSGPHLAVERPIFEIVSTDQTILPDTEKAMKLHLREGGLTFQLHRDVPLMVAKNIENAAEKALSPLGITDWNSVFWMVHPGGRAILDQVERKLNLKEDKLRASRHVLSEYGNLISACVLFIIDEVRKRSMAEGKSTTGEGLDCGVLFGFGPGMTVETVVLRSVRVTAAVANGN | soluble |
| MGSDKIHHHHHHMKKQFEMYFSLGTLIGYMHDNKLIATGGVFPFKDSFSTIGMLIVHPNFQGQGIGRTLLNHCLAHTHPKQPIALIATKAGEPLYTSCGFQTVTTIHRFEKQTTKTHITHTQQVKEKDIISLISLDQSTTGADRSLLYSLLLPRTSHSFKIERHNCIEAFSLCIQKGNILCINPLIAKREEDAIQLLQKICECWNGTVRLDVPHSQFSFRKLLQTENFQETLLSPLMIKNGSQLPGNRNMLFAMIDTALC | not soluble |
| MGSDKIHHHHHHMPNIDTFVPEKIQIGISSCLLGNQVRFDGGHKNSYYCRQEIEPFFEYTTVCPEMAIGMGTPRKSIRQIRDGDVVHIRSADGTLDVTDKLNEYSQAKVEELDYLGGYILCAKSPTCGMERVTEYKIGTNNGSKTGVGVFAKKLMERYPLLPVEEEGRLHDLPLRENFFTRVFAYNDWKQMTQSGLTKHKLMQFHSRYKYLLMAHSPKWYRDLGPILADIQDVEQTAQQYFEGFMTALKIIATRKNHTSTLQHIQGYFKKQLTAEQKEELSESILKYRQGLLPLLVPITLINHYVREFHTPYIQDQVYLNPHPEALKLRYAY | not soluble |
| MGEAYAEVFPDPDGISGHVKGVVDINAPPEKVWRIMTDCAAAKVMITTLAVCRIVEGDMARGWDIREHVTRRNLVFPGLRIVFRSDYEPYSRIKFKLVGGDLKVEQGEWKLQALDGGRRTRVLYDNRLAVDWPVPKALIREALRKDTPKVLMNLKRLCELEHHHHHH | not soluble |
| MANLIYLTLNGDNQGLISSGCSSQPSIGNKAQTAHIDQIMIYEFMHGLNRDQNVNHHHLTIKKPIDKASPLLGKAICDNELLTCDFSFYRTNKFGINELFYKIKLTGAKISDIHVSISHIVVDNSVQPEESVSFSYESIIWEHCSAGTSAYSLWEDRLF | not soluble |
| MKQLSFLPGEMTPQDRRLIQRALRALDRHLHEPGVAFTSTHAVREWLRLHMAALEREEFRVLYLDNQNQLIAHETLFTGTINRTEVHPREVVKRALHFNAAAVILAHNHPSGETTPSQADKTLTQRLVQVLQLVDIRVPDHLIVGGRQIYSFAEHGLL | not soluble |
